T1: APOBEC2 (Mus musculus, UniProt Q9WV35 1-224)
T1 sequence: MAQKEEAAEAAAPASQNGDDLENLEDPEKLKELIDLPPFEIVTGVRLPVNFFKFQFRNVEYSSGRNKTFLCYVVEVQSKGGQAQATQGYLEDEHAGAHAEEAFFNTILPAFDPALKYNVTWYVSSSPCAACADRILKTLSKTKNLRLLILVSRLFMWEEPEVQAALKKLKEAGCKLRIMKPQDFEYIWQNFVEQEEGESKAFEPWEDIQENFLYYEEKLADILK


Assays:
APOBEC2 [1] = biological target: T1, APOBEC2; experiment: MST
SP1 = SP1 (Homo sapiens, UniProt P08047 2-785); experiment: EMSA
APOBEC2 [2] = biological target: T1, APOBEC2; experiment: MST; remark: listed apart in the source

SP1, sequence (P08047 2-785): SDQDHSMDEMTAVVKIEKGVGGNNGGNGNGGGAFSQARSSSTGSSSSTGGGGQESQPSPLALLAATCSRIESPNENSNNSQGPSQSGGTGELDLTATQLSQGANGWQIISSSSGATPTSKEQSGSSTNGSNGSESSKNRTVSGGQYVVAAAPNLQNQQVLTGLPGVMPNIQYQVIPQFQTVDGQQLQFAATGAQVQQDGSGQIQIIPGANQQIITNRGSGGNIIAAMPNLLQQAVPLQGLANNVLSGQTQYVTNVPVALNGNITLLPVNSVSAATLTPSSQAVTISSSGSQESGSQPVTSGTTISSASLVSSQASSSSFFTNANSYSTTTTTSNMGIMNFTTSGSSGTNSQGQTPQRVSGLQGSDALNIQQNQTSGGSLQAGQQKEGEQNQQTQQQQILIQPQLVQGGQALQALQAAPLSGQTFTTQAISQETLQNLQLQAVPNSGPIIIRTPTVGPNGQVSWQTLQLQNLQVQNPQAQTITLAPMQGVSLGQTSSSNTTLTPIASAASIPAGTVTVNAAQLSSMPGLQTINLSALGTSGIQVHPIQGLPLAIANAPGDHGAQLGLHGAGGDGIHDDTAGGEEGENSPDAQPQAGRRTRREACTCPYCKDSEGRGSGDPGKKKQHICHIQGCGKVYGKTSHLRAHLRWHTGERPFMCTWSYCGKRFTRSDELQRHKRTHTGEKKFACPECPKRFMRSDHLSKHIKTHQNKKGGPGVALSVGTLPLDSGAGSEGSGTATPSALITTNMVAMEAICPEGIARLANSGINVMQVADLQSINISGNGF

Binder | Kd (APOBEC2 [1]) [nM] | binding result (SP1) | binding result (APOBEC2 [2])
SP/KLF motif dsDNA (dsDNA) DNA 1: GGCGGCGCGGCCCCGCCCCCTCCTCCGGC DNA 2: GCCGGAGGAGGGGGCGGGGCCGCGCCGCC | 709 ± 186 | binds | 
A-tract motif dsDNA (dsDNA) DNA 1: TCTCAAGAAAAAAAAAAAAAGAC DNA 2: GTCTTTTTTTTTTTTTCTTGAGA |  |  | no binding
